Molecular target: His/S-tagged OCRL1, full length, recombinant (human, UniProt Q01968 1-901)
Assay: pull-down

binding result: binds
Binder: SFQQRHESLRP [GST APPL1 (aa 403-413), minimal OCRL1 binding domain of APPL1]

Reference: article PMC3046058 (Molecular Biology of the Cell, 2011)
